This note sets out measurements from US20160228502A1.

Values joined by “and” are separate entries in the source; they are usually repeats but may differ in a detail not shown here. Identical values can stand only once.

One experiment has as its target sAnk1-CFP. Briefly: AFRET in COS7 cells, sAnk1-CFP as donor.
Experiment [1] has as its target SERCA1-CFP (rabbit) (UniProt P04191). Briefly: AFRET in COS7 cells, SERCA1-CFP as donor.
The target in experiment [2] is sarco(endo)plasmic reticulum Ca^2+-ATPase 1 (SERCA1) (rabbit) (UniProt P04191). Briefly: coIP with antibodies to SERCA1 from COS7 extracts, with or without FLAG-SLN.
The target is the same in experiment [3]. Briefly: amylose resin pull down from COS7 extracts expressing SERCA1, immunoblot densitometry.
Experiment [4] shares this target. Description: cell-based or functional assay.
Experiment [5] shares this target. Description: coIP from COS7 extracts, densitometry.
Experiment [6] shares this target. Briefly: coIP with antibodies to sAnk1 from COS7 extracts, densitometry.
For experiment [7] the target is unchanged. Description: coIP with antibodies to SERCA1 from COS7 extracts, densitometry.
Experiment [8] has as its target SERCA1-CFP (rabbit) (UniProt P04191). Briefly: AFRET in living COS7 cells.
The target of a further experiment is SLN-YFP (rabbit) (UniProt P42532). Description: AFRET in COS7 cells.
The target in experiment [9] is sarco(endo)plasmic reticulum Ca^2+-ATPase 1 (SERCA1) (rabbit) (UniProt P04191). Description: coIP with antibodies to SERCA1 from COS7 extracts, densitometry, with FLAG-SLN coexpressed.
The target in experiment [10] is SERCA1-CFP (rabbit) (UniProt P04191). Description: AFRET in COS7 cells.
Experiment [11] shares this target. Description: AFRET (Δr=rCFP-rFRET) in COS7 cells.
For experiment [12] the target is unchanged. Description: AFRET in COS7 cells, FLAG-SLN cotransfected.

Sequence of sarco(endo)plasmic reticulum Ca^2+-ATPase 1 (SERCA1) (rabbit) (P04191 whole entry): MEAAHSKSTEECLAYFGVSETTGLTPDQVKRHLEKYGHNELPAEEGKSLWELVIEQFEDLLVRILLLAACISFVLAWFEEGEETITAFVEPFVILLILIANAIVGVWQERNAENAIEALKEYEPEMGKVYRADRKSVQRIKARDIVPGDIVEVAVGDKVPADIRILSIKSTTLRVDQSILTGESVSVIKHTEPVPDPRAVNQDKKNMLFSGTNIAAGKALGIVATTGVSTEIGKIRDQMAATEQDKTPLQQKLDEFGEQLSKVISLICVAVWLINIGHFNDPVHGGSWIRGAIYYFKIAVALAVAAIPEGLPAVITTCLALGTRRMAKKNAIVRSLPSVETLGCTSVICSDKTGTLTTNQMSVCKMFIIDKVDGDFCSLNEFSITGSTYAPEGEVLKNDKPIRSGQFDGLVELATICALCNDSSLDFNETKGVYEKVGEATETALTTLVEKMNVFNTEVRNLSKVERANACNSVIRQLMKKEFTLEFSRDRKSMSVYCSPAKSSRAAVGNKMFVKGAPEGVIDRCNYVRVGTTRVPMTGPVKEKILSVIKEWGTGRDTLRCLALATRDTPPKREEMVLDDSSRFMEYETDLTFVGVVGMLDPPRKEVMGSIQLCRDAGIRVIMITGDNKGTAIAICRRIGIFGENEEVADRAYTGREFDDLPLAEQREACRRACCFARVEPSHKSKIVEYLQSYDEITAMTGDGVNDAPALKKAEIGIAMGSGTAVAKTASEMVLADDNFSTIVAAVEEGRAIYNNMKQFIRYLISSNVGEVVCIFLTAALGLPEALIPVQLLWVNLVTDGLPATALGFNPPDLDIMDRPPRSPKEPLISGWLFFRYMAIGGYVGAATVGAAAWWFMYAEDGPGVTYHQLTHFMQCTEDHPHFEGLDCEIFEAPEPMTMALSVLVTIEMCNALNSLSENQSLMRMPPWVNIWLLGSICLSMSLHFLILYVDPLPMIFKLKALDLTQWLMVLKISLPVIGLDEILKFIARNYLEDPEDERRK
Sequence of SERCA1-CFP (rabbit) (P04191 whole entry): as above
Sequence of SLN-YFP (rabbit) (P42532 whole entry): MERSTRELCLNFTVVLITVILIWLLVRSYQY

Consider dysferlin-YFP, for which the AFRET Δrmean was -0.028 with sAnk1-CFP and -0.035 in the experiment with SERCA1-CFP (rabbit) [1].
Consider sAnk1 (29-155)-FLAG, for which, in experiment [2], the fold enhancement of the interaction in the presence of FLAG-SLN turned out to be 2.7 fold.
In [3], “sAnk1 (29-155)-MBP fusion protein (from UniProt P0AEX9 27-392)” displayed a fold SERCA1 pulled down relative to the MBP control of 9 fold.
In [4], sAnk1 (all-L) showed a KCa2+ ([Ca^2+] required for half-maximal activation) of SERCA1 Ca^2+-ATPase, COS7 microsomes of 501 nM; a KCa2+ in pCa^2+ units, SERCA1 Ca^2+-ATPase, COS7 microsomes of 6.3 pCa^2+ units; a Mean Kca (nM), Ca^2+-ATPase assay in COS7 microsomes, FIG. 6D of 502 nM; a Mean Kca (pCa), Ca^2+-ATPase assay in COS7 microsomes, FIG. 6D of 6.3 pCa. Further, in [4], the ΔKCa2+ relative to SERCA1 Alone is -0.02 pCa^2+ units and the ΔKCa2+, COS7 microsomes was -0.01 pCa^2+ units. For the same substance, the reduction in coIP, normalized to coIP of SERCA1 and sAnk1 (WT) in [5] is 50% and 34% to 61% (2×). Besides, in [6], the percent of SERCA1 coimmunoprecipitated compared to WT is 49%. In addition, in experiment [7], the percent of sAnk1 (all-L) coimmunoprecipitated compared to WT sAnk1 is 49%.
With sAnk1 (all-L)-YFP, the AFRET Δrmean with SERCA1-CFP (rabbit) [8] came to 0.017.
In the experiment with SLN-YFP (rabbit), sAnk1-CFP came in with an AFRET Δrmean of 0.03.
Regarding “sAnk1-FLAG (C-terminal FLAG-tagged sAnk1)”, in experiment [4], the HEK 293 mean Kca (nM), Ca^2+-ATPase assay turned out to be 680 nM; the HEK 293 mean Kca (pCa), Ca^2+-ATPase assay amounted to 6.17 pCa; the KCa2+ ([Ca^2+] required for half-maximal activation) of SERCA1 Ca^2+-ATPase, COS7 microsomes, all assays compiled is 759 nM; the KCa2+ in pCa^2+ units, SERCA1 Ca^2+-ATPase, COS7 microsomes, all assays compiled was 6.12 pCa^2+ units. Besides, in experiment [4], the Mean Kca (nM), Ca^2+-ATPase assay in COS7 microsomes, FIG. 6B turned out to be 708 nM; the Mean Kca (nM), Ca^2+-ATPase assay in COS7 microsomes, FIG. 6D is 794 nM; the Mean Kca (pCa), Ca^2+-ATPase assay in COS7 microsomes, FIG. 6B came to 6.15 pCa; the Mean Kca (pCa), Ca^2+-ATPase assay in COS7 microsomes, FIG. 6D was 6.1 pCa. For the same substance, in experiment [4], the shift of SERCA1's apparent Ca^2+ affinity, COS7 microsomes was -0.18 pCa^2+ units; the ΔKCa2+ in HEK293 microsomes is -0.21 pCa^2+ units; the ΔKCa2+ relative to SERCA1 Alone was -0.2 pCa^2+ units; the ΔKCa2+, COS7 microsomes, experiment with sAnk1 (all-L) is -0.22 pCa^2+ units. The same substance registered a fold increase in coIP with SERCA1 on addition of FLAG-SLN, against co-transfection of SERCA1 and sAnk1 alone in experiment [9] of 2.6 fold.
On to sAnk1-YFP, for which the AFRET Δrmean with SERCA1-CFP (rabbit) [10] was 0.021; in the experiment with SERCA1-CFP (rabbit) [8] it was 0.043; with SERCA1-CFP (rabbit) [11], 0.026. In the experiment with SERCA1-CFP (rabbit) [12], this substance had an AFRET Δrmean (cells cotransfected with FLAG-SLN) of 0.036.
